The results in this text go back to patent US10272135B2, “Apolipoprotein O and fragments thereof for inducing apoptosis in a cancerous cell” (INSERM (INSTITUT NATIONAL DE LA SANTÉ ET DE LA RECHERCHE …, priority 2014, dated 2019).

One assay concerns H9c2 cardiac myoblasts. Briefly: Lipid profiling (FAME, diglycerides, triglycerides, BODIPY-palmitate) in cardiac myoblasts. It counts as cell-based. The source says: After ethical committee approval, all patients in this study gave written consent for sample collection and molecular analysis prior to inclusion. Patients were carefully selected by physicians from the Department of Cardiology, Toulouse University Hospital, prior to coronary by-pass surgery. Bioinformatics. Microarray expression data from human heart samples were downloaded from the GEO repository (GSE1145). This series consisted of 107 myocardial samples collected from patients undergoing cardiac transplantation whose failure arises from different etiologies (e.g. idiopathic dilated cardiomyopathy, ischemic cardiomyopathy, valvular cardiomyopathy, and hypertrophic cardiomyopathy) and from “normal” organ donors whose hearts cannot be used for transplants. Arrays were intensity normalized and hierarchical clustering (average group linkage, Pearson correlation, threshold r=0.8) was applied to identify groups of co-expressed genes. ApoO expression levels were plotted for the 107 human hearts tested and used to define relevant molecular pathways using both Toppgene and Ingenuity Pathway Analysis (Ingenuity systems, Redwood City, Calif., USA). ApoO subcellular localization was predicted using Mitopred, mitoprot and YLoc. Animals: All animal Studies followed the INSERM Institute Animal Facility guidelines and were approved by the animal care committees of the INSERM I2MC UMR 1048. All animal procedures were performed according to the guidelines of the French Ministry of Agriculture. Animals were housed at the Toulouse I2MC animal facility in a room lit 12 h per day (6 AM-6 PM) at an ambient temperature of 22+/−1° C. […] All ApoO sequences within the expression vectors were verified by DNA double strand sequencing using ABI PRISM®BigDye™ Terminator version 3.1 Ready reaction cycle sequencing kit (Life Technologies SAS, Villebon sur Yvette) and loaded on an ABI 3130XL DNA sequencing instrument (Life Technologies SAS, Villebon sur Yvette). […]

A further assay deals with cyclophilin-D and/or ANT. Briefly: Blue Native Page and GST pull-down with heart mitochondria protein extracts. The assay is classed as binding, mouse. The note with it: BN-PAGE and GST-ApoO pull-down (FIGS. 5A and B). The source says: (A) One-dimensional BN-PAGE gel analysis of mitochondrial protein complexes from mouse heart. (1): Coomassie blue staining of the 4-13% polyacrylamide one-dimensional gradient blue native gel. (2): Ponceau S staining of the transferred PVDF membrane. ApoO, ANT and CypD were detected using enhanced chemiluminescence of the transferred PVDF membranes with ApoO, ANT or CypD antibodies respectively. ApoO, ANT and CypD were detected in the same complex (black rectangle).
(B) Western blot analysis of ApoO-GST pull-down. Upper panel: Ponceau S staining of the transferred membrane used to control loading and transfer. […]
After ethical committee approval, all patients in this study gave written consent for sample collection and molecular analysis prior to inclusion. […] All ApoO sequences within the expression vectors were verified by DNA double strand sequencing using ABI PRISM®BigDye™ Terminator version 3.1 Ready reaction cycle sequencing kit (Life Technologies SAS, Villebon sur Yvette) and loaded on an ABI 3130XL DNA sequencing instrument (Life Technologies SAS, Villebon sur Yvette). […]

B1: ApoO: 198-amino acid apolipoprotein, SEQ ID NO: 1; tested by overexpression from expression vectors or transgene (protein, listed as Homo sapiens)
chain: MFKVIQRSVGPASLSLLTFKVYAAPKKDSPPKNSVKVDELSLYSVPEGQSKYVEEARSQLEESISQLRHYCEPYTTWCQETYSQTKPKMQSLVQWGLDSYDYLQNAPPGFFPRLGVIGFAGLIGLLLARGSKIKKLVYPPGFMGLAASLYYPQQAIVFAQVSGERLYDWGLRGYIVIEDLWKENFQKPGNVKNSPGTK
For B1, the “increase of total intracellular fatty acids” value in the assay on H9c2 cardiac myoblasts (ApoO expressing cells vs control (FIG. 6E)) worked out at 120%. Further, the “accumulation of green fluorescent BODIPY-palmitate” value in the assay with H9c2 cardiac myoblasts (ApoO expressing cells, 2 min incubation (FIG. 6D)) is listed as “rapid accumulation”. Besides, the “interaction with cyclophilin-D and/or ANT” value in the assay with cyclophilin-D and/or ANT is listed as “interaction”.
